Paper doi:10.1101/2025.09.13.676064, “Structural Hijacking of FcRn by Human Astrovirus Spikes Reveals Conserved Epitopes for Broad-Spectrum Antivirals” (bioRxiv, 2025)

B1: HAstV-2 capsid spike domain (residues 428-647) (domain or fragment)
chain: SGELRVLLTVGSIMSPNSADRQVWLNKTLTAPGTNSNDNLVKIAHDLGHYLIMQGFMHIKTVEWYTPDFQPSRDPTPIAGMSVMVNITKKADVYFMKQFKNSYTNNRHQITSIFLIKPLADFKVQCYMSYFKRESHDNDGVANLTVRSMTSPETIRFQVGEWYLLTSTTLKENNLPEGWVWDRVELKSDTPYYADQALTYFITPPPVDSQILFEGNTTLP
modifications: biotin (biotinylated spike; BirA co-transfected)
notes: Human astrovirus serotype 2 capsid protein (ORF2-encoded precursor), spike domain, residues 428-647 of Q82446.1; Codon-optimised, in pcDNA3.1; also called HAstV2 spike; serotype 2 spike; source: Expi293F cells, co-transfected with BirA plasmid, purified from the supernatant (Ni-IMAC, SEC Superdex 200); not shown: AviTag, C-terminal, kept
B2: HAstV-8 capsid spike domain (residues 424-645) (domain or fragment)
chain: SIPEPGEQFRVLLTVGPPMAPNTANSQNWVNKTIVPPENQYTVKIGIDLEHYTTMQGFTPVESVSWYTADFQPSDEPSPIPGLYARVNNTKKADVYGVQQFKSSHTNNRHQITSVFLVRVTTSFQVINYTSYFIRGAESGSNVSNLKIRDQTYHTPLQFTQGKWYLLTSTVMHDGPTSSGWVWMNQELTNNIAYRVDPGMMYLITPPPAASQLYFELHTVLP
modifications: biotin (biotinylated spike; BirA co-transfected)
notes: Human astrovirus serotype 8 capsid protein (ORF2-encoded precursor), spike domain, residues 424-645 of Q9IFX1; Codon-optimised, in pcDNA3.1; also called HAstV8 spike; serotype 8 spike; source: Expi293F cells, co-transfected with BirA plasmid, purified from the supernatant (Ni-IMAC, SEC Superdex 200); not shown: AviTag, C-terminal, kept

What was measured:
[1] = molecular target: T1, untagged recombinant human FcRn extracellular domain (neonatal Fc receptor; α-chain with β2-microglobulin) (human, UniProt P55899 24-297; P61769 21-119); experiment: BLI; biotinylated spike immobilised on streptavidin (SA) biosensors; FcRn in solution, 2-fold dilutions 1,000 to 31.25 nM; 23°C; pH 7.5; 1:1 binding model; Octet Red; conditions: both partners purified
T1 construct: Human FcRn α-chain (heavy chain), residues 24-297 of UniProt P55899; Human β2-microglobulin, residues 21-119 of UniProt P61769; Untagged; both chains cloned into separate phCMV3 vectors; also called human FcRn ectodomain; FcRn heterodimer; source: Expi293F cells, co-transfected (1:1), purified from the supernatant (human IgG column, SEC Superdex 200 Increase)

[2] = molecular target: T1, untagged recombinant human FcRn …; experiment: BLI; biotinylated spike immobilised on streptavidin (SA) biosensors; FcRn in solution, 2-fold dilutions 1,000 to 31.25 nM; 23°C; pH 6.0; 1:1 binding model; Octet Red; conditions: both partners purified

T1 sequence (P55899 24-297, chain 1 of 2): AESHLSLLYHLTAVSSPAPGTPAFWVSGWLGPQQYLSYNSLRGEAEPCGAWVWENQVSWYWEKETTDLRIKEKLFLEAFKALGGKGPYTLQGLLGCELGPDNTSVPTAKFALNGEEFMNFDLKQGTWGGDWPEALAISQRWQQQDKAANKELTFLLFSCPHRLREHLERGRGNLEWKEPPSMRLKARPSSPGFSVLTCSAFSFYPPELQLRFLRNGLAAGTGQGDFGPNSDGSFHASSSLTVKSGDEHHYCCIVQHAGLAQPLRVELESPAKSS
T1 sequence (P61769 21-119, chain 2 of 2): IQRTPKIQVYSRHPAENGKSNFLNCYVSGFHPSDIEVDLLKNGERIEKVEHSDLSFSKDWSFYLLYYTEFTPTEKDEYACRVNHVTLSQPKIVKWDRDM

Binder	Kd [1] [nM]	Kd [2] [nM]
B1	898	42
B2	458	60
